Assay results: article PMC3807654 (Cell Reports, 2012)

Molecular target: human α-synuclein, monomeric, full length (human, UniProt P37840 1-140)
Assay: fluorescence polarisation

Kd: 8.04 ± 2.09 µM
B1: Atto550-labeled SERF1a (Cys-SERF1a-Cys, N- and C-terminal double cysteine mutant) (natural protein)
chain: MC(Atto550 maleimide)ARGNQRELARQKNMKKTQEISKGKRKEDSLTASQRKQRDSEIMQEKQKAANEKKSMQTREKC(Atto550 maleimide)
